Measured values published in PMC3145792.
Several values for one entry are separate records, joined by “and”; a condition that tells them apart may be missing. Equal values may be shown once.

Target: SECRET domain (smallpox virus-encoded chemokine receptor domain) of the vTNFR CrmD encoded by ectrom (ectromelia virus)
Experiment: SPR

What does the source list for “chemokine domain of human CX3CL1 (residues 1-76), mutant I19A (from UniProt P78423 25-100) (domain or fragment)”?
Kd: 1.28 µM and 0.641 µM and 0.96 µM; koff: 0.00689 s⁻¹ and 0.00578 s⁻¹; kon: 5380 M⁻¹ s⁻¹ and 9020 M⁻¹ s⁻¹

Which Kd does the source give for “chemokine domain of human CX3CL1 (residues 1-76), mutant F49A (from UniProt P78423 25-100) (domain or fragment)” here?
The Kd was 3.75 µM and 4.64 µM and 4.2 µM.

Which Kd does the source give for “chemokine domain of human CX3CL1 (residues 1-76), mutant K18A (from UniProt P78423 25-100) (domain or fragment)” here?
Its Kd is 10.9 µM and 11.5 µM and 10.3 µM.

What about the koff of the same substance?
Its koff is 0.0103 s⁻¹ and 0.00518 s⁻¹.

What about the kon of the same substance?
The kon was 1000 M⁻¹ s⁻¹ and 450 M⁻¹ s⁻¹.

How did the Kd turn out when “chemokine domain of human CX3CL1 (residues 1-76), mutant L23A (from UniProt P78423 25-100) (domain or fragment)” was run?
Its Kd is 3.36 µM and 5.62 µM and 4.49 µM.

Which Kd does the source give for “chemokine domain of human CX3CL1 (residues 1-76), mutant R47A (from UniProt P78423 25-100) (domain or fragment)” here?
The Kd was 34.5 µM and 38.4 µM and 36.5 µM.

How did the Kd turn out when “chemokine domain of human CX3CL1 (residues 1-76), mutant R44A (from UniProt P78423 25-100) (domain or fragment)” was run?
Its Kd is 15.7 µM and 16.6 µM and 16.1 µM.
